{
  "source": "the nanobody polyreactivity screen of Harvey et al. (2022)",
  "data": [
    {"test": "yeast display, Sf9 membrane polyspecificity reagent, FACS + sequencing; frameworks hold sequencing errors", "method_in_brief": "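Synthetic nanobody libraries on Saccharomyces cerevisiae BJ5465 were galactose-induced for 36–48 hours, stained 1 hour at 4 °C with 10% biotinylated, detergent-solubilized Sf9 membrane reagent and enriched on streptavidin microbeads. FACS then separated cells into low and high (top ~1%) gates by anti-HA (expression) and streptavidin (reagent binding) fluorescence. Genes were colony-PCR amplified, MiSeq 2 × 250 sequenced and CDR-length filtered. A clone's polyreactivity label is that of its gate of origin.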", "values": [
      {"sequence": "QVQLVESGGGLVQAGGSLRLSCAASGSIFGSYAMGWYRQAPGKERELVADISRRGSSTYYADSVKGRFTISRDNAKNTVYLQMNSLKPEDTAVYYCNKVFARSLSSRYQAYDYWGQGTQVNVSS", "polyreactivity (PSR sort gate)": "high polyreactivity"},
      {"sequence": "QVQLVESGGGLVQAGGSLRLSCAASGLIFEEYAMGWYRQAPGKERELVAGIDSSGSTNYADSVKGRFTISRDNAKNTVYLQMNSLKPEDTAVYYCTARGYYPRWYYVFRGNYWGQGTQVTVSS", "polyreactivity (PSR sort gate)": "low polyreactivity"},
      {"sequence": "QVQLVESGGGLVQAVGSLRLSCAASGSTFLLNAMGWYRQAPGKEREFVAAITGNAGSTYYADSVKGRFTISRDNAKNTVYLQMNSLKPEDTAVYYCAAALPGYDGDYWGQGTQVTVSS", "polyreactivity (PSR sort gate)": "low polyreactivity"},
      {"sequence": "QVQLVESGGGLVQAGGSLRLSCAASGSIFPYYAMGWYRQAPGKERELVAAISDSGDSTYYADSVKGRFTISRDNAKNTVYLQMNSLKPEDTAVYYCAADQTSSYYDPWGDYWGQGTQVTVSS", "polyreactivity (PSR sort gate)": "low polyreactivity"},
      {"sequence": "QVQLVESGGGLVQAGGSLRLSCAASGSIFSQYAMGWYRQAPGKERELVDAITYGGGSTYYADSVKGRFTISRDNAKNTVYLQMNSLKPEDTAVYYCNADGWNTYIGPRRYRYDYWGQGTQVTVSS", "polyreactivity (PSR sort gate)": "low polyreactivity"},
      {"sequence": "QVQLVESGGGLVQAGGSLRLSCAASGSIFDVNAMGWSRQPPGKERELVAVISSSDSTDYADSVKGRFTISRDNAKNTVYLQMNSLKPEDTAVYYCAADEYQDRPDDYWGQGTQVTVSS", "polyreactivity (PSR sort gate)": "low polyreactivity"},
      {"sequence": "QFQLVESGGGLVQAGGSLRLSCAASGSIFDIYAMGWYRPAPGKERELVADITISGGSTYYADSVKGRFTISRDNAKNTVYLQLNSLIPEDTAVYYCAADVTVVLGYKYDYWGQGTQVTVSS", "polyreactivity (PSR sort gate)": "low polyreactivity"},
      {"sequence": "QVQLVESGGGLVQAGGSLRLSCAASGFTFVFNARAWYRQAPGKERELVATITNGGSTYYADSVKGRFTISRDNAKNTVYLQMNSLKPEDTAVYYCAAVRKQCSGFDYWGQGTQVTVSS", "polyreactivity (PSR sort gate)": "high polyreactivity"},
      {"sequence": "QVQLQESRGGPVLAGGSLRLSCAASGTIFVRLDMGWYRQAPGKEREFVATIGSGSSTYYADSVKGSFTISRDNVKNTVYLQMNSLKPEDTAVYYCAVSAAEQSRHYYWDQGTQVTVSS", "polyreactivity (PSR sort gate)": "low polyreactivity"},
      {"sequence": "QVQLVESGGGIVQAGGSLRLRCAASGLIFAYNAMGGDRQAPGKEREFVAAINSGGDSTYYADCVKGRFTISRDNAKNTVYLQMNSLKPEDTAVYYCAAVSGNKRYYYWGHGTQVTVSS", "polyreactivity (PSR sort gate)": "low polyreactivity"},
      {"sequence": "QVQLVESGGGLVQAGGSLRLSCAASGSILVDNAMASYRQAPGKERELVARITGSGGSTYYADSVKGRFTISRDNAKNSVYLQMHILKPEDTAVYYCAARRVNAGWTYGLRGNYWGQGTQVTVSS", "polyreactivity (PSR sort gate)": "low polyreactivity"},
      {"sequence": "QVQLLESGGGLVQAGGSLRLTSPASVRISQIYAMGWYIQAPGTERVLVARITSTDSTYYADSVKGRFTISRDNAKNTVYLQMNSLKPEDTAVYYCAASWWSPYDYWGQGTQVTVSS", "polyreactivity (PSR sort gate)": "low polyreactivity"},
      {"sequence": "QVQLVESGGGLVQAGGSLRLSCAASGFTFAGNAMGWYRPAPGKERELVAAISRRGGSTYYADSVKGRFTISRDNAKNTVYLQMNSLKPEDTAVYYCAAVYPYDYDYWGQGTQVTVSS", "polyreactivity (PSR sort gate)": "high polyreactivity"},
      {"sequence": "QVQLVESGVRLVQAGGSLRLSCASSAITFGKNAMGWYRQAPGTESELVAAITRDGGTNYADSVKGRFTISRDNAMNTVYLHMNILKPEDTAVYYCAKRAYIYYGRYDYWGQGTQVTVSS", "polyreactivity (PSR sort gate)": "low polyreactivity"},
      {"sequence": "QVQLVESGGGLVLPGGSLRLSCAASGSTLYPYAMGWYRQAPGKERELVAAITYGGTSTYYADSVKGRFTISRDNAKNTVYLQMNSQKPEDTALYYCAARGGTTIRYDYWGQGTQVTVSS", "polyreactivity (PSR sort gate)": "high polyreactivity"},
      {"sequence": "QVQLVESGGGLVQAGGSLRLSCAASGRIFYFNAMGWYRQAPGKERELVAAISGSGGDTYYADTVKGRFTISRDNAKNTVYLQMNCLKPEDTAVYYCAAEVYTWGQGTQVTVSS", "polyreactivity (PSR sort gate)": "low polyreactivity"},
      {"sequence": "QVQLVESGGGLVQAGGSLRLSCAASGNTFRIYTMGWYRQAPGKERELVATITRRGGSTYYADSVKGRFTISRDNAKNTVYLQMNSLKPEDTAVYYCAARVRGTGVYGGYNYWGQGTQVTVSS", "polyreactivity (PSR sort gate)": "high polyreactivity"},
      {"sequence": "QVQLVESGVGLVQAGGSLRLSCAASGLIFFFYAMGWYRQAPGKERELVASISGGGITYYADSVKGRFTISRDNAKNTVYLQMNSLKPEDTAVIKNDYWGQGTQVTVSS", "polyreactivity (PSR sort gate)": "low polyreactivity"},
      {"sequence": "QVKLEESGGGLVQEGGSLRISCAASVRIFGNYSMGWSRQAPGKEMELVAAIDLSGDSTYYADSVKGRFTISRDNAKNTVYLQMNSLKPEDTAVYYCAATDWFSEYYWGQATQVTVSS", "polyreactivity (PSR sort gate)": "low polyreactivity"},
      {"sequence": "QVQLVESGGGLVQAGGSLRLICAASGSIFRPNAMGWYRQAPGKEREFVASISGRVGSTYYADSVKGRFTISRDNAKNTVYLQMNSLKPEDTAVYYCAADFPTDKLSNFPITEYGYWGQGTQVTVSS", "polyreactivity (PSR sort gate)": "high polyreactivity"},
      {"sequence": "QVQLVESGGGLVQAGGSLRLSCAASGFTFGGNVMGWYRQAPGTERELVAAITYSGGSTYYADSVKGRFTISRDNAKNTVYLQMNSLIPEDTAVYYCNADATDSYPEKDEHDSWGQGTQVNVSS", "polyreactivity (PSR sort gate)": "low polyreactivity"},
      {"sequence": "QVQLVESGGGLVQAGGSLRLSCAASGFTFPYNAMGWYSQARGKERELVAAISRSGTRTYYADSVKGRFTISRDNAKNTVYLQMNSLKPEDTAVYYCNARAAGYSRRGPGFDYWGQGTQVTVSS", "polyreactivity (PSR sort gate)": "high polyreactivity"},
      {"sequence": "QVQLVESGGGLVQAGGSLRLSCAASGRTFRRNAMGWYRQAPGKERELVADISNGDSTKYADSVKGRFTISRDNAKNTVYLHMNRLKPVDTAVYYCNAQRYRVVVYNSHGWQTRNYWGQGTQVTVSS", "polyreactivity (PSR sort gate)": "low polyreactivity"},
      {"sequence": "QVQLVESGGGLVQAGGSLRLSCAASGSIFVTNAMGWYRQAPGKERELVAAISGGADSTYADSVKGRFTISRDNAKNTVYLQMNSLKPEDTAVYYCAAKVRGWHYYYCGQGTQVTVSS", "polyreactivity (PSR sort gate)": "low polyreactivity"},
      {"sequence": "QVQLVESGGGLVQAGGSLRLSCAASGRIFGPDAMRWYRQAPRKERELVAAITWRGDRTYYADSVKGRFTISRDIAKNSVYLQINSLKPEDTAVYYCAARGGRSEYDYWGQATQVTVSS", "polyreactivity (PSR sort gate)": "low polyreactivity"},
      {"sequence": "QVQLVESGGGLVQAGGSLRLICAASGFTFRYYAMGWYRQAPGTERELVAAISAGGGSTYYADSVKGRFTISRDNAKNTVYLQMNSLKPEETAVYYCAAAGARPGYDYWGQGTLVTVSS", "polyreactivity (PSR sort gate)": "high polyreactivity"},
      {"sequence": "QVQLVESGGGLVQAGGRLRLSCAASGRIFYYNAMGWYRQAPGKERELVATITGSGGSTYYADSVKGRFTISRDIAKNTVYLQMNSLKPEDTAVYYCAKRIYRYQYRPENYWGQGTQVTVSS", "polyreactivity (PSR sort gate)": "low polyreactivity"},
      {"sequence": "QVQLVESGGGLVQAGGSLRLSCAASGRTFGGYAMGWYRQAPGKERELVAAITSDTGTNYADSVKGRFTISRDNAKNTVYLQMNSLKPEDTAVYYCAADRFYEYDYWGQGTQVTVSS", "polyreactivity (PSR sort gate)": "low polyreactivity"},
      {"sequence": "QVQLVESVGGLVQAGGTHRLSCSASGSTFFYYAMGWYRQAPGKERELVAAISSSGGRTYYADSVKGRFTISRDTAKNTVYLQMNSLKPEDTAVYYCAARDYRQSRYEYWGQGTEVTVSS", "polyreactivity (PSR sort gate)": "high polyreactivity"},
      {"sequence": "QVQLVESGGGLVQAGGSLRLSCAASGRTFRGYAMGWYRQAPGKERELVATISSRGGSTYYADSVKGRFTISRDNAKNTVYLQMNSLKPEDTAVYYCAARYIGYSSYKYDYWGQGTQVTVSS", "polyreactivity (PSR sort gate)": "high polyreactivity"},
      {"sequence": "QVQLVESGGGLVQAGGSLRLSCAASGFIFSYYAMGWYRQAPGKERELVATINFSGGRTYYADSVKGRFTISRDNEKNTVYLQMNSLKPEDTAVYYCAASFYSYTSRYPDYYYWGQGTQVTVSS", "polyreactivity (PSR sort gate)": "high polyreactivity"},
      {"sequence": "QVQLVESGGGLVQAGGSLRLSCAASGRTFSTYAMGWYRQAPGKEREMVAAISSGGGRTYYADSVKGRFTISRDYAKNTVYLQMNSLKPEDTAVYYSAADGYLRSRHGDYWGQGTQVTVSS", "polyreactivity (PSR sort gate)": "low polyreactivity"},
      {"sequence": "QVQLVESGGGLVQAGGSLRLSFAASGRIFAYYAMGCYRQAPGKERELVASISRSGGRTYYADSVKGRFTISRDNAKNTVYLQMNSLKPEDTAVYYFNRAVWFKSTVDYWGQGTQVTVSS", "polyreactivity (PSR sort gate)": "high polyreactivity"},
      {"sequence": "QVQLVESGGGLVQAGGSLRLSCAASGSIFGYYAMGWYIQAPGKERELVAAISWSGGSTYYADSVKGRFTISRDNAKNTVYLQMNSLKPEDTAVYYCNAYTRRGGHDYWGQGTQVTVSS", "polyreactivity (PSR sort gate)": "high polyreactivity"},
      {"sequence": "QVHLVESGGGLVQAGGSLRLSCAASGSIFYGNAMGWDRQATGKERELVAGISWYGGSTYYADSVKGRFTISRDNAKNTVYLQMNSLKPEDTAVYYCATVADEPRSYSGYEEYDYWGQGTQVTVSS", "polyreactivity (PSR sort gate)": "low polyreactivity"},
      {"sequence": "QVQLVESGGGLVQAGGSLRLSCAASGSTFYYYVMGWYRQAPGKERELVAAISRGGGSTYYADSVKGRFTISRDNAKNTVYLQMNSLKPEDTAVYYCAAASYYVEGDYWGQGTQVTVSS", "polyreactivity (PSR sort gate)": "low polyreactivity"},
      {"sequence": "QVQLVESGGGLVQAGGSLRLSCAASGITFRKYAMGWYRQAPGKERELVAGIRYSGSSTYYADSVKGRFTISRDNAKNTVYLQMNSLTPEDTAVYYCAVYGTTRYATTYDYWGQGTQVTVSS", "polyreactivity (PSR sort gate)": "high polyreactivity"},
      {"sequence": "QVQHVESGGGLVQAGGSLRLSCAASGFTFYGNSMGWYRPAPGKERELVAGISWRGGSTYYADSVKGRFTISRDNAKNTVYLQMNSLKPEDTAVYYCAAYLWTNYYLWEYDYWGQGTQVTVSS", "polyreactivity (PSR sort gate)": "high polyreactivity"},
      {"sequence": "QVQLVESGGGLVQAGGSLRLSCAATGSPFILYALGWYRQAPGKERALVAAITTSGGSTYYADSVKGRFTISRDNAKNTVYLQMNSLKPEDTAVYYCNADWGWRYSSDFDYWGQGTQVTVSS", "polyreactivity (PSR sort gate)": "low polyreactivity"},
      {"sequence": "QVQLHESGGGLVQAGGSLRLSCAASGTISYAGPMGWYRQAPGKEREFVAGIGVGSNTNYADSVKGRYTIIRDNAKNTVYLQMTSLKPEDTAVYYCAVGGYAPLGRPYWGQGTQVTVSS", "polyreactivity (PSR sort gate)": "low polyreactivity"},
      {"sequence": "QVQLVESGGGLVQAGGSLRLSCAASGFIFLYYAMGWYRQAPGKERELVAVITRGGRTYYADSVKGRFTISRDNAKNTVYLQMNSLKPEDTAVYYCAAKAYSYFARIGFDYWGQGTQVTVSS", "polyreactivity (PSR sort gate)": "high polyreactivity"}
    ]}
  ]
}
